According to US20160137713A1 (HANALL BIOPHARMA, published 2016):
Where a chain is given by its changes, count along the chain named.

Experiments:
soluble human FcRn [1] = molecular target: T1, soluble human FcRn (human, UniProt P55899 24-297; P61769 21-119); assay: SPR, shFcRn immobilised, pH 6.0
T1 construct: extracellular domain;mature; Non-covalent heterodimer secreted by 293 cells, purified on IgG Sepharose; also called shFcRn; soluble FcRn
Procedure: (§1) Measurement of the binding ability of antibody by SPR was performed by immobilizing shFcRn as a ligand onto a Proteon GLC chip (Bio-Rad) and measuring affinity.
(§2) The analysis of ligand and analyte was performed using a Proteon GLC chip, and the interaction was analyzed at a pH of 6.0 and a pH of 7.4. Immobilization of the ligand was activated by injecting a 1:1 mixture of 1×EDAC (EDC) and 1× Surfo-NHS for 5 minutes. shFcRn was diluted in 10 mM sodium acetate (pH 4.5) at a concentration of 25 μg/ml and added to the ligand at a flow rate of 30 μl/min for 5 minutes. […] The analyte antibody was allowed to flow on the immobilized chip at a flow rate of 30 μl/min. […] The association time of the analyte antibody was 240 seconds, and the dissociation time was 600 seconds. Regeneration of the chip was performed by injecting 10 mM glycine (pH 2.5) at a flow rate of 100 μl/min for 18 seconds. Based on sensorgrams resulting from six concentrations of the analyte, kinetics analysis was performed using Proteon XPR36 software.

soluble human FcRn [2] = molecular target: T1, soluble human FcRn; assay: SPR, shFcRn immobilised, pH 7.4
Procedure: as §1, §2

[3] = molecular target: T2, human FcRn on HEK293 cells (human, UniProt P55899 24-365; P61769 21-119); assay: FACS on hFcRn-overexpressing HEK293 cells at pH 6.0, Alexa488 anti-human goat antibody; MFI relative to hIgG1
T2 construct: whole, on cells; also called hFcRn
T2 sequence (P55899 24-365, chain 1 of 2): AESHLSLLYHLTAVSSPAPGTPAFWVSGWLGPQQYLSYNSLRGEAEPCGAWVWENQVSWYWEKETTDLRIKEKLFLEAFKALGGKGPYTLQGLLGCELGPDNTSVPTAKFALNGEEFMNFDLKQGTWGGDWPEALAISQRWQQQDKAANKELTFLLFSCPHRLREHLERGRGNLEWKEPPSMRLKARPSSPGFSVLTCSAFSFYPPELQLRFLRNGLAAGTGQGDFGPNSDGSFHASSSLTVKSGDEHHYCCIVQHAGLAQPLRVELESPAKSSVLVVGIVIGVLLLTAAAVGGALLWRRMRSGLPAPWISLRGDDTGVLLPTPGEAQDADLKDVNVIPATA
T2 sequence (P61769 21-119, chain 2 of 2): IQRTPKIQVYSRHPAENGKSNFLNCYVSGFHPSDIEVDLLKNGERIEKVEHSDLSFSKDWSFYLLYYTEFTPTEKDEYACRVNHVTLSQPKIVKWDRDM
Procedure: (§3) In stable HEK293 cells expressing human FcRn, the degrees of binding of antibody to FcRn at various pHs were analyzed using a FACS system. Specifically, 100,000 stable HEK293 cells were washed with PBS and centrifuged in a table top microcentrifuge at 4500 rpm for 5 minutes to obtain pellets. 1 μg of antibody was added to 100 μl of pH 6.0 or pH 7.4PBS/10 mM EDTA. The cell pellets were resuspended in 100 μl of the antibody solution and incubated on ice for 60 minutes. The cells were washed once with 150 μl of buffer having pH difference, and then pellets were obtained therefrom. Alexa488-labeled anti-human antibody goat antibody (1 mg/ml) was diluted at 1:20 in buffer having pH difference, and the pellets were resuspended in 100 μl of the buffer, and then cultured on ice for 60 minutes. The cells were washed once with 150 μl of buffer having pH difference, and pellets were obtained therefrom and resuspended in buffer having pH difference. The suspension was transferred into a tube for FACS analysis. These cells were analyzed by FACS using BD FACSDiva™ v6.1.3 software (BD Bioscience). The results of the analysis were expressed as Mean Fluorescence Intensity (MFI) (see FIG. 2).

[4] = molecular target: T2, human FcRn on HEK293 cells; assay: FACS on hFcRn-overexpressing HEK293 cells at pH 7.4, Alexa488 anti-human goat antibody; MFI relative to hIgG1
Procedure: as §3

[5] = molecular target: T2, human FcRn on HEK293 cells; assay: FACS competition on hFcRn HEK293 cells at pH 6.0; remaining binding of 100 nM Alexa488-labeled hIgG1 (m14) with 250 nM competitor antibody, percent of the tube without competitor
Procedure: (§4) In stable HEK293 cells expressing human FcRn, the blocking of the antibody against FcRn was analyzed by FACS. The antibody was diluted in binding buffer (PBS pH 6.0, 10 mM EDTA) at concentrations of 2,000 nM, […] to make 50 μl of dilutions, which were dispensed into tubes. […] Stable HEK293 cells were diluted in binding buffer at a concentration of 2,500,000 cells/ml, and 40 μl of the cell dilution was added to each of the labeled antibody-containing tubes. Thus, a final volume of 100 μl contained 100,000 cells, 100 nM labeled antibody and 1000 nM, 500 nM or 250 nM competitor antibody. The cells were washed once with 150 μl of buffer (pH 6.0), and pellets were obtained therefrom and resuspended in 150 μl of buffer having pH difference. The suspension was transferred into a tube for FACS analysis. The cells were analyzed by FACS using BD FACSDiva™ v6.1.3 software (BD Bioscience). The results of the analysis were expressed as mean fluorescence intensity (MFI).
(§5) The MFI of the test group was processed after subtracting the MFI (background signal) measured in cells alone.

[6] = molecular target: T2, human FcRn on HEK293 cells; assay: FACS competition on hFcRn HEK293 cells at pH 6.0; remaining binding of 100 nM Alexa488-labeled hIgG1 (m14) with 500 nM competitor antibody, percent of the tube without competitor
Procedure: as §4, §5

[7] = molecular target: T2, human FcRn on HEK293 cells; assay: FACS competition on hFcRn HEK293 cells at pH 6.0; remaining binding of 100 nM Alexa488-labeled hIgG1 (m14) with 1000 nM competitor antibody, percent of the tube without competitor
Procedure: as §4, §5

rat FcRn on Rat-2 cells = molecular target: T3, rat FcRn on Rat-2 cells (rat, UniProt P13599 23-366; P07151 21-119); assay: FACS on rat FcRn-expressing Rat-2 cells at pH 6.0 and pH 7.4, FITC anti-human IgG goat antibody; MFI relative to hIgG
T3 construct: whole, on cells
T3 sequence (looked up): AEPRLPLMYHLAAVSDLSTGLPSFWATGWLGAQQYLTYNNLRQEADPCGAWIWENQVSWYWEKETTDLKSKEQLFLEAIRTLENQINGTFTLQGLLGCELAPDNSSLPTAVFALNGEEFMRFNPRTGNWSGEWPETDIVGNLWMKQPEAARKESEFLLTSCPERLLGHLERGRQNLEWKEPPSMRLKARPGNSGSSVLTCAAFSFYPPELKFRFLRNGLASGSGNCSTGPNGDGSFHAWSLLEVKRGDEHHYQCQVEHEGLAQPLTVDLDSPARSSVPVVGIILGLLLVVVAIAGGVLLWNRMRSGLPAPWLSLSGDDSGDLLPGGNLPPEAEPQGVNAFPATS
T3 sequence (b2m, looked up): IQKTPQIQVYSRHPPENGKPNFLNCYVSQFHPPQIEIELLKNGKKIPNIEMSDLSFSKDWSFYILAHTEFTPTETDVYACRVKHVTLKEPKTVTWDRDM
Procedure: Rat-2 (KCTC #AC28203), rat fibroblasts stably expressing rat FcRn, were cultured in 10% FBS DMEM medium, and then detached from the culture plate by trypsin treatment. The cells were washed three times with cold binding buffer (PBS pH 6.0, 10 mM EDTA), and then diluted in binding buffer at a concentration of 10⁵ cells/ml. 100 μl of the cell dilution was dispensed into each 1.5-ml tube in such a manner that each tube contained 10⁴ cells, and 1 μl of HL161 antibody (1 mg/ml) was added to the dispensed cells. Next, the cells were incubated on ice. As control antibodies, 1 μl of each of mouse 1G3 antibody and human IgG antibody (Abcam, cat#. 409120), which bind to rat FcRn, was used. The 1G3 antibody was produced and purified from mouse hybridoma cells (ATCC CRL2434). The cells were recovered by centrifugation at 4° C. and 4000 rpm for 5 minutes, after which the cells were washed once with binding buffer and resuspended in 100 μl of binding buffer. As FITC-conjugated secondary antibody, 1 μl of anti-human IgG goat antibody (Invitrogen, cat#. A11013) was added to the cells. In the case of the experiment using anti-rat FcRn mouse antibody, the anti-mouse IgG goat antibody (Invitrogen, cat#. A11001) was incubated with the cells on ice for 1 hour, and then the cells were recovered by centrifugation at 4° C. and 4000 rpm for 5 minutes, washed once with binding buffer, resuspended in 400 μl of binding buffer and analyzed by FACS to examine the cross-reactivity of the HL161 antibodies with rat FcRn (see FIG. 4). An experiment at a pH of 7.4 was performed using binding buffer at a pH of 7.4 in the same manner as the experiment using binding buffer at a pH of 6.0. The degree of the binding of each antibody to rat FcRn was presented as relative MFI based on human IgG.

[8] = molecular target: T4, mouse FcRn on 3T3-L1 cells (mouse, UniProt Q61559 22-365; P01887 21-119); assay: FACS on mouse FcRn-expressing 3T3-L1 cells at pH 6.0 and pH 7.4, FITC anti-human IgG goat antibody; MFI relative to hIgG
T4 construct: whole, on cells; also called NIH3T3L1
T4 sequence (looked up): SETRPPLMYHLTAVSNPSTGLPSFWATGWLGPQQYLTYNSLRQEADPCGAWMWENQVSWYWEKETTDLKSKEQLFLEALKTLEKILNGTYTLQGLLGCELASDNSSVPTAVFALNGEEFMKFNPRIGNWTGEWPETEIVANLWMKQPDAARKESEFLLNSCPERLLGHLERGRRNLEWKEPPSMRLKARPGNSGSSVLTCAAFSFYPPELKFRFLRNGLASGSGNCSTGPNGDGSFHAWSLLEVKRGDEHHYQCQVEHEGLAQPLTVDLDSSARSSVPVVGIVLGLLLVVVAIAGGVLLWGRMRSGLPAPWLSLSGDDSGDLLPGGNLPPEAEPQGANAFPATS
T4 sequence (b2m, looked up): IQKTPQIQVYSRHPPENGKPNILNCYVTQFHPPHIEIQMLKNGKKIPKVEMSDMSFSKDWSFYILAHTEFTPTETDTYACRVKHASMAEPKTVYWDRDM
Procedure: 3T3-L1 cells stably expressing mouse FcRn were cultured in 10% FCS DMEM medium, and then detached from the culture plate by trypsin treatment. The cells were washed three times with cold binding buffer (PBS, pH 6.0 10 mM EDTA), and then diluted in binding buffer at a concentration of 10⁵ cells/ml. 100 μl of the cell dilution was dispensed into each 1.5-ml tube in such a manner that each tube contained 10⁴ cells, and 1 μl of HL161 antibody (1 mg/ml) was added to the dispensed cells. Next, the cells were incubated on ice. As control antibodies, 1 μl of each of rabbit antibody (Santacruz, sc-66893) and human IgG (Abcam, cat#. 409120), which bind to mouse FcRn, was used. The cells were recovered by centrifugation at 4° C. and 4000 rpm for 5 minutes, after which the cells were washed once with binding buffer and resuspended in 100 μl of binding buffer. As FITC-conjugated secondary antibody, 1 μl of anti-human IgG goat antibody (Invitrogen, Cat*. A11013) was added to the cells. In the case of the experiment using anti-mouse FcRn rabbit antibody, the anti-rabbit antibody was incubated with the cells on ice for 1 hour, and then the cells were recovered by centrifugation at 4° C. and 700 g for 5 minutes, washed once with binding buffer, resuspended in 400 ul of binding buffer and analyzed by FACS to examine the cross-reactivity of the HL161 antibodies with mouse FcRn (see FIG. 4). An experiment at a pH of 7.4 was performed using binding buffer at a pH of 7.4 in the same manner as the experiment using binding buffer at a pH of 6.0. The degree of the binding of each antibody to mouse FcRn was presented as relative MFI based on human IgG.

T1 sequence (P55899 24-297, chain 1 of 2): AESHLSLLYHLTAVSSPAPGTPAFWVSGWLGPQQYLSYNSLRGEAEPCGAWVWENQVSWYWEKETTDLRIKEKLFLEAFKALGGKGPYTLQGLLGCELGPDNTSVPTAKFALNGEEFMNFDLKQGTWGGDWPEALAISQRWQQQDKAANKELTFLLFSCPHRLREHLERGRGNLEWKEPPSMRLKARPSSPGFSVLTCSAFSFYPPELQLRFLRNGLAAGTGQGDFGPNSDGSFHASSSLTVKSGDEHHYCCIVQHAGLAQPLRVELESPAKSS
T1 sequence (P61769 21-119, chain 2 of 2): as the sequence (P61769 21-119, chain 2 of 2) above

B1: HL161-6C (antibody, V domains shown)
VH: QVQLVESGAEVKKPGASVKVSCKASGYTFTSYYMHWVRQAPGQGLEWMGIINPSGGSTSYAQKFQGRVTMTRDTSTSTVYMELSSLRSEDTAVYYCARGGGAFDIWGQGTMVTVSS
VL: DIQMTQSPSSVSASVGDRVTITCRASQGISNWVAWYQQKPGKAPKLLIYAASSLQSGVPSRFSGSGSGTDFTLTISSLQPEDFAIYYCQQGHSFPYTFGQGTKVEIK
notes: Whole human IgG from pNATAB vectors
Question: For B1, which koff (soluble human FcRn [1]) is on record?
Answer: The koff was 0.0019 s⁻¹.

Question: What about the kon (soluble human FcRn [1]) of the same binder?
Answer: The kon was 1e+06 M⁻¹ s⁻¹.

Question: And the koff (soluble human FcRn [2])?
Answer: Its koff is 0.0031 s⁻¹.

Question: What about the kon (soluble human FcRn [2]) of the same binder?
Answer: Its kon is 470000 M⁻¹ s⁻¹.

Question: What about the “Relative MFI (Fold)” value [3] of the same binder?
Answer: Its value is 0.9 fold.

Question: And the “Relative MFI (Fold)” value [4]?
Answer: The value was 1.3 fold.

Question: And the “Relative MFI(%) at 250nM” value [5]?
Answer: Its value is 88.2%.

Question: And the “Relative MFI(%) at 500nM” value [6]?
Answer: The value was 84.7%.

Question: What about the “Relative MFI(%) at 1000nM” value [7] of the same binder?
Answer: Its value is 81.1%.

B2: HL161-1A (antibody, V domains shown)
VH: QVQLVQSGGGLVQPGRSLRLSCAASGFSFGEYGMHWVRQAPGKGLEWVSGVSWNSGSIAYADSVRGRFTISRDNSKNSLYLQMNSLRAEDTAVYYCARGRSMDVWGQGTTVTVSS
VL: NFMLTQPASVSGSPGQTITISCTGSSSDVGGYNYVSWYQQHPGKAPQLIIYDVTKRPSGVSNRFSGSKSGNSASLTISGLQAEDEADYYCSSYSSSTFYVFGTGTKVTVL
notes: as for B1
Question: Does B2 bind (rat FcRn on Rat-2 cells)?
Answer: Result: binds

Question: Does B2 bind [8]?
Answer: Result: binds

B3: HL161-11G (antibody, V domains shown)
VH: QMQLVESGGGVVQPGRSLRLSCVGSGFNFNSYGIHWVRQAPGKGLEWVGGIFYDGSQVKYADSVKGRVSISRDNSKNTAYLQMNSLRAEDTAVYYCARRNLLDYWGQGTVVTVSS
VL: B2 VL with T17S
notes: Whole human IgG from pNATAB vectors; also called h1161-11G
Question: Does B3 bind (rat FcRn on Rat-2 cells)?
Answer: Result: binds

Question: Does B3 bind [8]?
Answer: Result: binds

B4: HL161-10E (antibody, V domains shown)
VH: QVQLVESGGGLVQPGGSLRLSCAASGFRFSNFAMTWVRQAPGKGLEWVSTLSGSGGSIHHADSVKGRFTISRDNSKNTLYLQMNSLRAEDTAVYYCAKGPLRGQPAYLDPWGQGTLVTVSS
VL: SYELTQPLSVSMSPGQTARITCSGDALSKQYASWYQLKPGQAPVVVMYKDTERPSGIPDRFSGSSSGTTVTLTISGVQAEDEADYYCQSITDKSGTDVIFGGGTKLTVL
notes: as for B1
Question: B4 was tested. Which kon (soluble human FcRn [2]) did it give?
Answer: The kon was 310000 M⁻¹ s⁻¹.
